# From patent US20250018014A1, “METHOD FOR TREATING AND/OR PREVENTING REGNASE-1-RELATED DISEASE” (OSAKA UNIVERSITY, priority 2018, published 2025)
# T1: FLAG-tagged Regnase-1 AA mutant (S435A/S439A), purified from or expressed in Regnase-1-deficient MEFs
# T1 chain: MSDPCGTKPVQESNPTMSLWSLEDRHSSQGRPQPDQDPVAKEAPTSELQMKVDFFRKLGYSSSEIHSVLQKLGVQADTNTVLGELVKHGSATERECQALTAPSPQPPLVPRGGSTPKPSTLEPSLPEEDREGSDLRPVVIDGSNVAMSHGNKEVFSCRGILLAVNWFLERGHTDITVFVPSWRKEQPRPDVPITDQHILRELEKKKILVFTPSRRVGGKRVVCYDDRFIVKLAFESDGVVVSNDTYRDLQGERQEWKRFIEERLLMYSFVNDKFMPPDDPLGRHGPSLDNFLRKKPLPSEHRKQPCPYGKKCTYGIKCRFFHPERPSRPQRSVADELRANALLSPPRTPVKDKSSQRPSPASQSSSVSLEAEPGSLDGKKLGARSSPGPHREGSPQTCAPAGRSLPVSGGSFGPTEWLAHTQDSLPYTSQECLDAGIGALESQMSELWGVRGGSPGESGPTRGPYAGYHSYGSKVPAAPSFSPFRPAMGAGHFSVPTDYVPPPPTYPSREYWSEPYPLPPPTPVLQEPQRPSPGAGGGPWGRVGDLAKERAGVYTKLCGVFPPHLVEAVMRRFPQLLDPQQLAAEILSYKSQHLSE
# T2: biotinylated human Regnase-1 (full length, C-terminal BirA recognition sequence, GST tag cleaved)
# T2 chain: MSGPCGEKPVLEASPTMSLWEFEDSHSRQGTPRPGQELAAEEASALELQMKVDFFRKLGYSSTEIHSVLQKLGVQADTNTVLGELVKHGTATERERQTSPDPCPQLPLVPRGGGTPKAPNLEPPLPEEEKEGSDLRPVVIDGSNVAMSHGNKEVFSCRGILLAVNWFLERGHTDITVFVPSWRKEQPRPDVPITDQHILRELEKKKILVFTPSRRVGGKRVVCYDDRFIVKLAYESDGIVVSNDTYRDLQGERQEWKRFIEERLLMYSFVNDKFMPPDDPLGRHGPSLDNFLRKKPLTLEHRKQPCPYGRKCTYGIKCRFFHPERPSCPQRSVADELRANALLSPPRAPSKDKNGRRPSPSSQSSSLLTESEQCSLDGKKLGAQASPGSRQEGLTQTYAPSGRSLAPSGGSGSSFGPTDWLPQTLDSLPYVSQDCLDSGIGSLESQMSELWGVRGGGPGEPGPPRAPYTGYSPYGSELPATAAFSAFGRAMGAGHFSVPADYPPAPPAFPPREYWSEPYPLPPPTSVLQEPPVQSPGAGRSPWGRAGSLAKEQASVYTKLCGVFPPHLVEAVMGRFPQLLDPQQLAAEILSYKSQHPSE
# B1: GST-tagged IKKi (Thermo Fisher Scientific) (protein)
# chain: MQSTANYLWHTDDLLGQGATASVYKARNKKSGELVAVKVFNTTSYLRPREVQVREFEVLRKLNHQNIVKLFAVEETGGSRQKVLVMEYCSSGSLLSVLESPENAFGLPEDEFLVVLRCVVAGMNHLRENGIVHRDIKPGNIMRLVGEEGQSIYKLTDFGAARELDDDEKFVSVYGTEEYLHPDMYERAVLRKPQQKAFGVTVDLWSIGVTLYHAATGSLPFIPFGGPRRNKEIMYRITTEKPAGAIAGAQRRENGPLEWSYTLPITCQLSLGLQSQLVPILANILEVEQAKCWGFDQFFAETSDILQRVVVHVFSLSQAVLHHIYIHAHNTIAIFQEAVHKQTSVAPRHQEYLFEGHLCVLEPSVSAQHIAHTTASSPLTLFSTAIPKGLAFRDPALDVPKFVPKVDLQADYNTAKGVLGAGYQALRLARALLDGQELMFRGLHWVMEVLQATCRRTLEVARTSLLYLSSSLGTERFSSVAGTPEIQELKAAAELRSRLRTLAEVLSRCSQNITETQESLSSLNRELVKSRDQVHEDRSIQQIQCCLDKMNFIYKQFKKSRMRPGLGYNEEQIHKLDKVNFSHLAKRLLQVFQEECVQKYQASLVTHGKRMRVVHETRNHLRLVGCSVAACNTEAQGVQESLSKLLEELSHQLLQDRAKGAQASPPPIAPYPSPTRKDLLLHMQELCEGMKLLASDLLDNNRIIERLNRVPAPPDV
# B2: IKKβ (manufactured by SignalChem) (protein)
# chain: MSWSPSLTTQTCGAWEMKERLGTGGFGNVIRWHNQETGEQIAIKQCRQELSPRNRERWCLEIQIMRRLTHPNVVAARDVPEGMQNLAPNDLPLLAMEYCQGGDLRKYLNQFENCCGLREGAILTLLSDIASALRYLHENRIIHRDLKPENIVLQQGEQRLIHKIIDLGYAKELDQGSLCTSFVGTLQYLAPELLEQQKYTVTVDYWSFGTLAFECITGFRPFLPNWQPVQWHSKVRQKSEVDIVVSEDLNGTVKFSSSLPYPNNLNSVLAERLEKWLQLMLMWHPRQRGTDPTYGPNGCFKALDDILNLKLVHILNMVTGTIHTYPVTEDESLQSLKARIQQDTGIPEEDQELLQEAGLALIPDKPATQCISDGKLNEGHTLDMDLVFLFDNSKITYETQISPRPQPESVSCILQEPKRNLAFFQLRKVWGQVWHSIQTLKEDCNRLQQGQRAAMMNLLRNNSCLSKMKNSMASMSQQLKAKLDFFKTSIQIDLEKYSEQTEFGITSDKLLLAWREMEQAVELCGRENEVKLLVERMMALQTDIVDLQRSPMGRKQGGTLDDLEEQARELYRRLREKPRDQRTEGDSQEMVRLLLQAIQSFEKKVRVIYTQLSKTVVCKQKALELLPKVEEVVSLMNEDEKTVVRLQEKRQKELWNLLKIACSKVRGPVSGSPDSMNASRLSQPGQLMSQPSTASNSLPEPAKKSEELVAEAHNLCTLLENAIQDTVREQDQSFTALDWSWLQTEEEEHSCLEQAS
# B3: GST-tagged TBK1 (Sigma) (protein)
# chain: MQSTSNHLWLLSDILGQGATANVFRGRHKKTGDLFAIKVFNNISFLRPVDVQMREFEVLKKLNHKNIVKLFAIEEETTTRHKVLIMEFCPCGSLYTVLEEPSNAYGLPESEFLIVLRDVVGGMNHLRENGIVHRDIKPGNIMRVIGEDGQSVYKLTDFGAARELEDDEQFVSLYGTEEYLHPDMYERAVLRKDHQKKYGATVDLWSIGVTFYHAATGSLPFRPFEGPRRNKEVMYKIITGKPSGAISGVQKAENGPIDWSGDMPVSCSLSRGLQVLLTPVLANILEADQEKCWGFDQFFAETSDILHRMVIHVFSLQQMTAHKIYIHSYNTATIFHELVYKQTKIISSNQELIYEGRRLVLEPGRLAQHFPKTTEENPIFVVSREPLNTIGLIYEKISLPKVHPRYDLDGDASMAKAITGVVCYACRIASTLLLYQELMRKGIRWLIELIKDDYNETVHKKTEVVITLDFCIRNIEKTVKVYEKLMKINLEAAELGEISDIHTKLLRLSSSQGTIETSLQDIDSRLSPGGSLADAWAHQEGTHPKDRNVEKLQVLLNCMTEIYYQFKKDKAERRLAYNEEQIHKFDKQKLYYHATKAMTHFTDECVKKYEAFLNKSEEWIRKMLHLRKQLLSLTNQCFDIEEEVSKYQEYTNELQETLPQKMFTASSGIKHTMTPIYPSSNTLVEMTLGMKKLKEEMEGVVKELAENNHILERFGSLTMDGGLRNVDCL
# B4: TBK1 (manufactured by SignalChem) (protein)
# chain: B3 chain
# What was measured:
# [1] = target: T1, FLAG-tagged Regnase-1 AA mutant …
# [2] = target: T2, biotinylated human Regnase-1 (full …)
Protein,"in vitro phosphorylation (mobility shift by immunoblotting, 32P autoradiography) [1]","in vitro phosphorylation reaction, western blotting with anti-phosphorylated Regnase-1 antibody [2]"
B1,Phosphorylation of recombinant Regnase-1 by recombinant TBK1 and/or IKKi under in vitro conditions was detected,
B2,,it was confirmed that human Regnase-1 is phosphorylated by IKKβ and TBK1
B3,Phosphorylation of recombinant Regnase-1 by recombinant TBK1 and/or IKKi under in vitro conditions was detected,
B4,,it was confirmed that human Regnase-1 is phosphorylated by IKKβ and TBK1
